B1: T. thermophilus Pex10 (1–454) (natural protein, Thermothelomyces thermophilus, UniProt G2Q0E2 1-454, looked up)
chain: MATQPPPARPPPPLTSSPYPYAAAPDIIRAHQKDAYFQGVLANRLSDLHRRLRGARSAHAWAAETRTFAAALYLCLTTLLGNRTLGEEYCDLVQVEEAPSKLFASSSSKAADDHIYENGLGGGGDGGPLLPSLPRRAGYILTAIVLPHLASRALPSVRSAIRKRLQSRLATLSRRRQQTGTKSGSGRGGRGGGGGITEYRVLRYLLTHLTPLTSGAHFRAATLAVFYFTGAYYELSKWVWGLRYVFTTRAGRVVDDDHNRHHHSPQHGGGNGGRAGYEVLGVLLVVQMAVRAWLHVREQLSSGSVAGGGGEEEEDGEDGFRERTAFGPGTNVDVSLDEHAFTSNNELLGGGGGGGGSSSQRSLGEIGAMAHTPVLKAGRARYDLGTSDKVMGWIKGAQQRKCTLCLEELKDPAATQCGHVFCWACIGDWVREKPECPLCRREAMVQHILPLRAA
notes: Pex10 of Thermothelomyces thermophilus, residues 1-454; codon-optimised synthetic gene; also called T.t; Pex10; source: P. pastoris SMD1168, co-expressed with Pex2 and Pex12, purified (streptavidin resin, gel filtration) in digitonin
B2: T. thermophilus Pex2 (140–495) (domain or fragment, Thermothelomyces thermophilus, UniProt G2Q1C9 140-495, looked up)
chain: SREGTRPAFRVGQVDAELLDEELVELLRGQVREALRYVGGGGGGGGGGGGGGVGSGVAQDWEAEISLALRAVLFKLTVWDHDATYGAALQNLKYTDARRDGPALAPPSRWQKALYGLVTVGGRYLWAKWEDWLLEQDDGFEGPSPRVKRLARWTSALSTLHASAALVSFLVFLLHGRYRTLLDRLLRMRLAPPTSQVSREVSFEYLNRQLVWHAFTEFLLFVLPLVGINRWRRWLARTWRRTKKIMTADADGGAGDKKGEYSFLPERTCAICYRDQNSASSETELLAAASGGVVGSAQTDITNPYEAIPCGCTYCFVCLATRIEREEGEGWPCLRCGELIKECKPWNGDVLEEPQV
notes: Pex2 of Thermothelomyces thermophilus, residues 140-495; codon-optimised synthetic gene; also called T.t; Pex2; source: P. pastoris SMD1168, co-expressed with Pex10 and Pex12, purified (streptavidin resin, gel filtration) in digitonin

Target: T1, T. thermophilus Pex12 (1–439) with an N-terminal SBP tag (Thermothelomyces thermophilus, UniProt G2Q5N0 1-439)
T1 construct: Pex12 of Thermothelomyces thermophilus, residues 1-439; codon-optimised synthetic gene; the SBP tag is followed by a HRV3C protease cleavage site; also called T.t; Pex12; source: P. pastoris SMD1168, co-expressed with Pex2 and Pex10, purified (streptavidin resin, gel filtration) in digitonin; not shown: SBP, N-terminal, kept
T1 sequence (looked up): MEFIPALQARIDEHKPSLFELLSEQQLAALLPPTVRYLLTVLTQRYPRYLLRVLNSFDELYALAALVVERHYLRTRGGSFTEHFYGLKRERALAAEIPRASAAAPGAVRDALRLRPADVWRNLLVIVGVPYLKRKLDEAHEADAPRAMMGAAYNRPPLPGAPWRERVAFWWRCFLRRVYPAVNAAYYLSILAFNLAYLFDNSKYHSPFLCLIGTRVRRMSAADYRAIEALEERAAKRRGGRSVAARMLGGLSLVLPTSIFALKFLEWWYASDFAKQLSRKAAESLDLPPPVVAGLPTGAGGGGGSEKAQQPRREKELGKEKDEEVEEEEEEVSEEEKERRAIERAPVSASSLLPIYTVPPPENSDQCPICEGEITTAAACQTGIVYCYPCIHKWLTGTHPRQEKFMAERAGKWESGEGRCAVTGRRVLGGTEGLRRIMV
Experiment: pull-down + SEC; Pex2, Pex10 and SBP-Pex12 co-expressed in P. pastoris; membranes solubilised in 1% LMNG; captured on streptavidin resin through SBP-Pex12, eluted with biotin, gel filtration (Superose 6) in 25 mM HEPES pH 7.4, 150 mM NaCl, 0.05% digitonin; fractions by SDS-PAGE and Coomassie staining
Conditions: partners not purified

| Binder | stoichiometry N |
| --- | --- |
| B1 | 1 |
| B2 | 1 |

Source: paper PMC9279156, “A peroxisomal ubiquitin ligase complex forms a retrotranslocation channel” (Nature, 2022)
